Measured values published in patent US20190351015.

B1: Siah1 (protein)
chain: MSRQTATALPTGTSKCPPSQRVPALTGTTASNNDLASLFECPVCFDYVLPPILQCQSGHLVCSNCRPKLTCCPTCRGPLGSIRNLAMEKVANSVLFPCKYASSGCEITLPHTEKADHEELCEFRPYSCPCPGASCKWQGSLDAVMPHLMHQHKSITTLQGEDIVFLATDINLPGAVDWVMMQSCFGFHFMLVLEKQEKYDGHQQFFAIVQLIGTRKQAENFAYRLELNGHRRRLTWEATPRSIHEGIATAIMNSDCLVFDTSIAQLFAENGNLGINVTISMC
Nkx3.2 (153-318)
  Degradation by Siah1: -
Nkx3.2 (130-320)
  Degradation by Siah1: -
Nkx3.2 (123-320)
  Degradation by Siah1: -
Nkx3.2 (99-327)
  Degradation by Siah1: +++
Nkx3.2 (112-333)
  Degradation by Siah1: ++
Nkx3.2 (1-320)
  Degradation by Siah1: +
Nkx3.2 (99-330)
  Degradation by Siah1: +++
Nkx3.2 (1-307)
  Degradation by Siah1: -
Nkx3.2 (162-312)
  Degradation by Siah1: ++
Nkx3.2 (99-320)
  Degradation by Siah1: +
Nkx3.2 (105-327)
  Degradation by Siah1: ++
Nkx3.2 (123-333)
  Degradation by Siah1: -
Nkx3.2 (156-316)
  Degradation by Siah1: ++
Nkx3.2 (1-333)
  Degradation by Siah1: +++
Nkx3.2 (112-320)
  Degradation by Siah1: -
Nkx3.2 (110-324)
  Degradation by Siah1: +++
Nkx3.2 (159-314)
  Degradation by Siah1: ++
Nkx3.2 (99-333)
  Degradation by Siah1: ++
Nkx3.2 (165-310)
  Degradation by Siah1: ++
Nkx3.2 (150-320)
  Degradation by Siah1: -
Nkx3.2 (42-333)
  Degradation by Siah1: +++
